Experimental data: article PMC6158747

Test system: CytR DNA-binding domain
Assay: fluorescence anisotropy
Conditions: Stopped-flow kinetics: 50 mM sodium phosphate, 30 mM NaCl, 1 mM EDTA, pH 6.0, 278 K, 300 nM Alexa-532 udp half-site, equilibrium isotherms at 293 K (buffer not …)

udp half-site (Udp-Half) was tested, and the K half was 10 µM.
PurR binding site (PurFO) gave a K half (293 K, first of two overlapping titration profiles (K1/2,1)) of 0.4 µM.
Work on random DNA (Poly-AC DNA) yielded a K half (293 K, similar affinity to udp half-site) of 10 µM.
